Test results: article PMC6462504, “Dopamine transporter forms stable dimers in the live cell plasma membrane in a phosphatidylinositol 4,5-bisphosphate–independent manner” (The Journal of Biological Chemistry, 2019)

Target: the molecule itself
Assay: single-molecule brightness analysis (TOCCSL); live CHO cells stably expressing mGFP–hDAT, TIRF microscopy of the plasma membrane, room temperature; mobile fraction only; also at low (~5/μm^2) and high (~40/μm^2) surface density and after cholesterol oxidase (2 units/ml, 30 min), MβCD (5 mM, 1 h) or m-3M3FBS (25 μM, 20 min): distribution unchanged

B1: human dopamine transporter fused to monomeric GFP (mGFP–hDAT) (natural protein, UniProt Q01959 1-620, looked up)
chain: MSKSKCSVGLMSSVVAPAKEPNAVGPKEVELILVKEQNGVQLTSSTLTNPRQSPVEAQDRETWGKKIDFLLSVIGFAVDLANVWRFPYLCYKNGGGAFLVPYLLFMVIAGMPLFYMELALGQFNREGAAGVWKICPILKGVGFTVILISLYVGFFYNVIIAWALHYLFSSFTTELPWIHCNNSWNSPNCSDAHPGDSSGDSSGLNDTFGTTPAAEYFERGVLHLHQSHGIDDLGPPRWQLTACLVLVIVLLYFSLWKGVKTSGKVVWITATMPYVVLTALLLRGVTLPGAIDGIRAYLSVDFYRLCEASVWIDAATQVCFSLGVGFGVLIAFSSYNKFTNNCYRDAIVTTSINSLTSFSSGFVVFSFLGYMAQKHSVPIGDVAKDGPGLIFIIYPEAIATLPLSSAWAVVFFIMLLTLGIDSAMGGMESVITGLIDEFQLLHRHRELFTLFIVLATFLLSLFCVTNGGIYVFTLLDHFAAGTSILFGVLIEAIGVAWFYGVGQFSDDIQQMTGQRPSLYWRLCWKLVSPCFLLFVVVVSIVTFRPPHYGAYIFPDWANALGWVIATSSMAMVPIYAAYKFCSLPGSFREKLAYAIAPEKDRELVDRGEVRQFTLRHWLKV
notes: human dopamine transporter (hDAT); XhoI/HindIII fragment of hDAT cDNA ligated into mGFP-C1, then cloned into pIB2; mGFP is fused to the cytosolic N terminus of hDAT; also called mEGFP–hDAT; mGFP–DAT; source: CHO cells stably expressing mGFP–hDAT (viral transduction, blasticidine selection), in the live cell plasma membrane; not shown: mGFP (eGFP with A206K), N-terminal, kept
- stoichiometry N: 2
